This note sets out measurements from article PMC3351183 (Nucleic Acids Research, 2012).

The data set “SEC” concerns the molecule itself. The data set can be described thus: SEC.
The data set “crystal structure” concerns the molecule itself. In words: crystal structure.

B1: GB1_HP0315 (HP0315, a VapD protein from Helicobacter pylori, fused with the immunoglobulin-binding domain of streptococcal protein G) (natural protein, Helicobacter pylori 26695)
chain: MYALAFDLKIEILKKEYGEPYNKAYDDLRQELELLGFEWTQGSVYVNYSKENTLAQVYKAINKLSQIEWFKKSVRDIRAFKVEDFSDFTEIVKS
The term stoichiometry N denotes the number of molecules, sites or subunits per partner or assembly. With B1, the “stoichiometry N” value in “SEC” worked out at 2.

B2: SeMet-substituted GB1_HP0315 (natural protein, Helicobacter pylori 26695)
chain: B1 chain
modifications: selenomethionine in place of methionine (first methionine residue of GB1 and the methionine residue of HP0315)
Take B2: the binding result in “crystal structure” is recorded as “binds”.
